Publication doi:10.1101/2020.10.22.351346

Tests used:
[1] = target: microtubules of pig brain tubulin, taxol-stabilised, surface-immobilised (pig) (UniProt P02550)
[2] = target: microtubules of pig brain tubulin, taxol-stabilised, surface-immobilised (pig) (UniProt P02550); assay: TIRF fluorescence imaging of labelled MAP on surface-immobilised MTs

full-length human MAP7, sequence (Q14244 whole entry): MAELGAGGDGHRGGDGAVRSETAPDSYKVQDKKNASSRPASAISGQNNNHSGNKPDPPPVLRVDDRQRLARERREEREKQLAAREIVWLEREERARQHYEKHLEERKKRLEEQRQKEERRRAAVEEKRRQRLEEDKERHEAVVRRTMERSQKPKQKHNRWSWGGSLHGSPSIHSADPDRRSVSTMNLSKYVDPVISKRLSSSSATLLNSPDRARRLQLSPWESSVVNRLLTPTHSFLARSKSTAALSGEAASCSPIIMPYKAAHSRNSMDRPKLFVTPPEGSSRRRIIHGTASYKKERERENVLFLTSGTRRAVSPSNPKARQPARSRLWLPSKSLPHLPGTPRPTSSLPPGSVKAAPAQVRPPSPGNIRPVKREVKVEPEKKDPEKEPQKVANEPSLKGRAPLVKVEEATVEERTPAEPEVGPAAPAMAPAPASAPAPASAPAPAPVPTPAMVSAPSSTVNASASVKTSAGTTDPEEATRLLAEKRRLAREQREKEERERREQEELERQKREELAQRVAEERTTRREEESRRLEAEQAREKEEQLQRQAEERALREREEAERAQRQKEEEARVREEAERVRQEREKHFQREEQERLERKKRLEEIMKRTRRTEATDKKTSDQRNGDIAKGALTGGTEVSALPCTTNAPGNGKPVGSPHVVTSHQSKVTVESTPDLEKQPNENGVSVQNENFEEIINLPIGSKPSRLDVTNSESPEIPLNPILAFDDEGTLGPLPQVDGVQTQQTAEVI
Tau-MTBD (amino acids 242-367), sequence (P10636 559-684): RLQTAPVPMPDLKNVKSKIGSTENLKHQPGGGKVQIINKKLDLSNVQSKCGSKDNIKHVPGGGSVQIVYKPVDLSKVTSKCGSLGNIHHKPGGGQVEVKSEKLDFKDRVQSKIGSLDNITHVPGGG
MAP7-N (amino acids 1-316), sequence (Q14244 1-316): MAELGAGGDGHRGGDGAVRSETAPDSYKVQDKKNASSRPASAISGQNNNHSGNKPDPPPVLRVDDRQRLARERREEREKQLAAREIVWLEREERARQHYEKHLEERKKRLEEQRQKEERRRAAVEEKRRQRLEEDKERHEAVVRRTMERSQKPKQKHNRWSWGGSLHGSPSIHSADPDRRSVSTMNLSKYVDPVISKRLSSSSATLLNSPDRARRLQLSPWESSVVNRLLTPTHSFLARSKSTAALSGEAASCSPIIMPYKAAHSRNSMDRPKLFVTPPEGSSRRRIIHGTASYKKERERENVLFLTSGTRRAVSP

MAP7-N (amino acids 1-316) (from UniProt Q14244-1 1-316) (domain or fragment)
IC50 of the run frequency of K560 on MTs against the concentration of MAP7-N [1]: 17.6 nM

Tau-MTBD (amino acids 242-367) (from UniProt P10636-8 242-367) (domain or fragment)
fold lower affinity than FL tau [2]: 100 fold

full-length human MAP7 (from UniProt Q14244-1 1-749) (natural protein)
IC50 [2]: 270 nM | Kd [2]: 111 nM
